Measurements reported in patent publication US20230144436A1 (DYNE THERAPEUTICS, published 2023).

T1: cynomolgus monkey transferrin receptor 1 (cynomolgus monkey, UniProt Q5RDH6 89-760 (Pongo abelii entry), limits assumed)
T1 construct: also called cTfR1; cyTfR1
T1 chain: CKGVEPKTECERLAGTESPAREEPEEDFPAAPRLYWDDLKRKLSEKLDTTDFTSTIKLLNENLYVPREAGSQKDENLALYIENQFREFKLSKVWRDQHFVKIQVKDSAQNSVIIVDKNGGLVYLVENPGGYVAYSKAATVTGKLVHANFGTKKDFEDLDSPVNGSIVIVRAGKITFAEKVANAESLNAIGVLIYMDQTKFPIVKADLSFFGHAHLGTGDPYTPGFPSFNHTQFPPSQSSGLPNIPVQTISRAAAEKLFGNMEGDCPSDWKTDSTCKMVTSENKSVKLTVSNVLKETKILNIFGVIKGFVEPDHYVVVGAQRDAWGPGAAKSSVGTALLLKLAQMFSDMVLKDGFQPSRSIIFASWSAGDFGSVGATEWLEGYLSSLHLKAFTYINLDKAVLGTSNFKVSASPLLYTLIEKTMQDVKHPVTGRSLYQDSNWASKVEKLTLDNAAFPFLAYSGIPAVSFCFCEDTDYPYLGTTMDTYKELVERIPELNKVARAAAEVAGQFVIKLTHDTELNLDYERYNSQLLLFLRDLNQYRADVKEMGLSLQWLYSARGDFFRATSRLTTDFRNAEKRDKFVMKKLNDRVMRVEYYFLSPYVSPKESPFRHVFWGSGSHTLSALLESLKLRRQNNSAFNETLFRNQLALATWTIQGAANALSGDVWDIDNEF

T2: cynomolgus monkey transferrin receptor 1 (cynomolgus monkey (Macaca fascicularis), UniProt Q5RDH6 89-760 (Pongo abelii entry), limits assumed)
T2 construct: also called cyTfR1; Cyno TfR1
T2 chain: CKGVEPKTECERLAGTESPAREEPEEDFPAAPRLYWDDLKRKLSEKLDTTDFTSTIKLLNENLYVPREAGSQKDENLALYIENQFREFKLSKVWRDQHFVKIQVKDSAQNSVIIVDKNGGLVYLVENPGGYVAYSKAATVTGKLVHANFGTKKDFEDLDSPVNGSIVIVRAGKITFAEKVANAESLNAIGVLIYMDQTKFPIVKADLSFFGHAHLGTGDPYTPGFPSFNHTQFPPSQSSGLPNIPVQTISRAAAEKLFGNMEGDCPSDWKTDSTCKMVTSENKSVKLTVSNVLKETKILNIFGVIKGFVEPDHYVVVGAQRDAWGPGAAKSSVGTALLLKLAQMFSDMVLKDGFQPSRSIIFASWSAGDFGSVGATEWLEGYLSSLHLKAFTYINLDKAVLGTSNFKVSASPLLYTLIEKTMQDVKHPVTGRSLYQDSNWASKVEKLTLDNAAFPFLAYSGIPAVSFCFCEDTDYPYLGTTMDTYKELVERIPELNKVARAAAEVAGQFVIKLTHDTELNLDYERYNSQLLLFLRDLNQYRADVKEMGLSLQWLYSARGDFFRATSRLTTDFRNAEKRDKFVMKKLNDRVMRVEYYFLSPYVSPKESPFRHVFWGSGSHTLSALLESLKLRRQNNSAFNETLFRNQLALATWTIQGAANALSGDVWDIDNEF

T3: human transferrin receptor 2 (human, UniProt Q9UP52 105-801, limits assumed)
T3 construct: also called human TfR2; hTfR2
T3 sequence (looked up): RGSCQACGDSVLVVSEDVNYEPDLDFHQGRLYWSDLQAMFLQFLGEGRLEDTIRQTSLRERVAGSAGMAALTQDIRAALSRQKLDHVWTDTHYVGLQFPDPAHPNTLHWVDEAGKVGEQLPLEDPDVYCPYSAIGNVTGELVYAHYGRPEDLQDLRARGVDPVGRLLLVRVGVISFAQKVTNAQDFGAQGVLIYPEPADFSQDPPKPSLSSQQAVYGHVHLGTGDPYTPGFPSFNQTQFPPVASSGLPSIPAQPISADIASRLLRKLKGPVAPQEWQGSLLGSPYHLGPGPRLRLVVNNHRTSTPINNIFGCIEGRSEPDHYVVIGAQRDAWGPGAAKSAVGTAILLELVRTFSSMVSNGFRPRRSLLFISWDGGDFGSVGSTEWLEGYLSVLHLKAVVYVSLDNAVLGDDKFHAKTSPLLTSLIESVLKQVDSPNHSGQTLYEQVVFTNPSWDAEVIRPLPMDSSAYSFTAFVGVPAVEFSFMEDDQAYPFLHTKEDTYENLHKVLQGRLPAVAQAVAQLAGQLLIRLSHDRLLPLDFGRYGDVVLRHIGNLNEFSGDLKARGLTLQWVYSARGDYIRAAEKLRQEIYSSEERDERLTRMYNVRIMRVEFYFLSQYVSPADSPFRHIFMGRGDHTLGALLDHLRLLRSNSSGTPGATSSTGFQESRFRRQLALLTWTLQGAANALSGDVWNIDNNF


Assays:
[1] = target: T1, cynomolgus monkey transferrin receptor 1; assay: ELISA
[2] = target: T4, human transferrin receptor 1 (human, UniProt P02786 89-760, limits assumed); assay: ELISA
T4 construct: also called hTfR1; human TfR1

[3] = target: T2, cynomolgus monkey transferrin receptor 1; assay: ELISA on cyno TfR1
Protocol: (§1) The binding activity of selected formats were tested against human TfR1, cyno TfR1, and human TfR2 in an ELISA assay.

[4] = target: T5, human transferrin receptor 1 (human, UniProt P02786 89-760, limits assumed); assay: Carterra LSA SPR array, IgG captured on anti-IgG lawn, hTfR1 as analyte, 25 C, 1:1 Langmuir fit
T5 construct: also called hTfR1; huTfR1
Protocol: Selected anti-TfR1 antibodies were tested for their binding affinity to human TfR1 for measurement of Ka (association rate constant), Kd (dissociation rate constant), and KD (affinity). […] The binding experiment was performed on Carterra LSA at 25 C. An anti-mouse IgG and anti-human IgG antibody “lawn” was prepared on a HC30M chip by amine coupling. 59 IgGs (58 mouse mAbs and 1 human mAb) were captured on the chip. Dilution series of hTfR1, cyTfR1, and hTfR2 were injected to the chip for binding (starting from 1000 nM, 1:3 dilution, 8 concentrations).
Binding data were referenced by subtracting the responses from a buffer analyte injection and globally fitting to a 1:1 Langmuir binding model for estimate of Ka (association rate constant), Kd (dissociation rate constant), and KD (affinity) using the Carterra™ Kinetics software. 5-6 concentrations were used for curve fitting.
Target sequence in this assay (P02786 89-760 limits assumed): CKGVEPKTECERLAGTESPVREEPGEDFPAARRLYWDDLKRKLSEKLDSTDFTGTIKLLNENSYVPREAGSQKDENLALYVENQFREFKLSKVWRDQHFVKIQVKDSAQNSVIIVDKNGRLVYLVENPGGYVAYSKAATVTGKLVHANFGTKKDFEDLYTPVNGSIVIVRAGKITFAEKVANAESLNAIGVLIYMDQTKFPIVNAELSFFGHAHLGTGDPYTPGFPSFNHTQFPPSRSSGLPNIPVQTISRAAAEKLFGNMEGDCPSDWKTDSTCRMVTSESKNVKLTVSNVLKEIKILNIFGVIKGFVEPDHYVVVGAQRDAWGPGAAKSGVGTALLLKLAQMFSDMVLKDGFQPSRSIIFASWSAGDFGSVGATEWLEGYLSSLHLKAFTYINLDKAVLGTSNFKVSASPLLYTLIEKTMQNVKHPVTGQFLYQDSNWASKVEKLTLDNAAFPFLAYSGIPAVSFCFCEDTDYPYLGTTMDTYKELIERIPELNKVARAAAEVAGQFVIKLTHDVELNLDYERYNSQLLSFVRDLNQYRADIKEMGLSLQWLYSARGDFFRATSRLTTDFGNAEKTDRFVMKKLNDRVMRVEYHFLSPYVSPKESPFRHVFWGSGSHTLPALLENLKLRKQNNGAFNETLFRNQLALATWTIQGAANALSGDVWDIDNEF

[5] = target: T5, human transferrin receptor 1; assay: average KD, antibody alone; method not given
Target sequence in this assay (P02786 89-760 limits assumed): as above

[6] = target: T2, cynomolgus monkey transferrin receptor 1; assay: average KD, antibody alone; method not given
[7] = target: T5, human transferrin receptor 1; assay: ELISA on human TfR1
Protocol: as §1

[8] = target: T3, human transferrin receptor 2; assay: ELISA

Row | Binder | Kd [4] [nM] | Kd [5] [nM] | Kd [6] [nM] | kon [4] [M⁻¹ s⁻¹] | binding result [8] | also measured
1 | anti-TfR antibody shown in Table 7, unconjugated (Example 18) (antibody, V domains shown, also called anti-TfR alone; unconjugated anti-TfR) VH: QVQLVQSGAEVKKPGESLKISCKGSGYSFTSYWIGWVRQMPGKGLEWMGIIYPGDSDTRYSPSFQGQVTISADKSISTAYLQWSSLKASDTAMYYCARFPYDSSGYYSFDYWGQGTLVTVSS VL: not shown | – | – | – | – | – | EC50 [1]: 33.6 nM; EC50 [2]: 26.6 nM
2 | Anti-TfR antibody 15G11 (antibody, V domains shown, Known control antibody; It was captured as an IgG on the Carterra chip; also called ctrl-15G11; 15G11 (control)) VH: QVQLQQPGAELVKPGASVKLSCKASGYTFTSYWMHWVKQRPGQGLEWIGEINPTNGRTNYIEKFKSKATLTVDKSSSTAYMQLSSLTSEDSAVYYCARGTRAYHYWGQGTSVTVSS VL: DIQMTQSPASLSVSVGETVTITCRASDNLYSNLAWYQQKQGKSPQLLVYDATNLADGVPSRFSGSGSGTQYSLKINSLQSEDFGTYYCQHFWGTPLTFGAGTKLELK | 0.283 | 0.8 | 1 | – | – | EC50 [3]: 1.08 nM; EC50 [7]: 0.589 nM
3 | 3-E5 (antibody, V domains shown, Tested as a mouse monoclonal IgG; also called 3-E05) VH: EIQMKQSGAELVKPGASVKISCKASGYSFTGYNMNWVKQSHGKSLEWIGNINPYYGSTGYNQKFKGKATLTVDKSSSTAYMQLNSLTSEDSAVYYCARGDYGYDEGTWFAYWGQGTLVTVSA VL: DIVMSQSPSSLAVSAGEKVTMSCKSSQSLLNSRTRKNYLAWYQQKPEQSPKLLIYWASTRESGVPDRFTGSGSGTDFTLTISSVQAEDLAVYYCKQSYNLPFTFGSGTKLEIK | 0.455 | 0.455 | 0.671 | 22000 | – | –
4 | 2-H19 (antibody, V domains shown, Tested as a mouse monoclonal IgG) VH: EVQLQQSGAELVRSGASVKLSCTASGFNIKDYYMHWVKQRPEQGLEWIGWIDPESGDTEYAPKFQGRATMTADTSSNTAYMQLSSLTSEDTAVYYCYGHDYRVDCWGQGTSVTVSS VL: DVVMTQTPLSLPVSLGDQASISCRSSQSLVHSNGNTYLHWYLQKPGQSPKLLIYKVSNRFSGVPDRFSGSGSGTDFTLKISRVEAEDLGVYFCSQSTHIPWTFGGGTKLEIK | 2.06 | 2.06 | 5.75 | 222000 | – | –
5 | 10-H2 (antibody, V domains shown, Tested as a mouse monoclonal IgG; also called 10-H02) VH: EVQLVESGGDLVKPGGSLKLSCAASGFTFSDYGMHWVRQGPEKGLEWVAYINSGSSTIYYADTVKGRFTISRDNAKNTLFLQMTSLRSEDTAMYYCARPGDYDNYAMDYWGQGTSVTVSS VL: DIVMTQSHKFLSTSVGDRVSITCKASQDVSVAVAWYQQKPGQSPKLLIYWAYTRHTGVPDRFTGSGSGTEYTLTISSVQAEDLALYYCQQHYNTPPWTFGGGTKLEIK | 2.72 | 2.72 | 12.4 | 126000 | – | –
6 | anti-TfR antibody shown in Table 7 conjugated to a DMPK-targeting oligonucleotide (control DMPK-ASO) (antibody, V domains shown, Antibody-oligonucleotide conjugate; For the uptake assay the antibody was conjugated to several different DMPK-targeting oligonucleotides and labeled with Cypher5e; also called oligonucleotide-conjugated anti-TfR; anti-TfR Fab conjugates) VH: QVQLVQSGAEVKKPGESLKISCKGSGYSFTSYWIGWVRQMPGKGLEWMGIIYPGDSDTRYSPSFQGQVTISADKSISTAYLQWSSLKASDTAMYYCARFPYDSSGYYSFDYWGQGTLVTVSS VL: not shown | – | – | – | – | – | EC50 [1]: 5.3 nM; EC50 [2]: 8.2 nM
7 | anti-TfR hIgG1 (with L234A/L235A mutations in HC constant region), Table 7 clone (antibody, V domains shown, Tied by the description 'anti-TfR IgG heavy chain (with human IgG1 constant region mutant L234A/L235A)') VH: QVQLVQSGAEVKKPGESLKISCKGSGYSFTSYWIGWVRQMPGKGLEWMGIIYPGDSDTRYSPSFQGQVTISADKSISTAYLQWSSLKASDTAMYYCARFPYDSSGYYSFDYWGQGTLVTVSS VL: not shown | – | – | – | – | no binding | –
8 | anti-TfR FAB, Table 7 clone (Fab, V domains shown) VH: QVQLVQSGAEVKKPGESLKISCKGSGYSFTSYWIGWVRQMPGKGLEWMGIIYPGDSDTRYSPSFQGQVTISADKSISTAYLQWSSLKASDTAMYYCARFPYDSSGYYSFDYWGQGTLVTVSS VL: not shown | – | – | – | – | no binding | –
9 | 15G11 (antibody, V domains shown, Known anti-TfR1 antibody used as control; also called control antibody 15G11; ctrl-15G11) VH: QVQLQQPGAELVKPGASVKLSCKASGYTFTSYWMHWVKQRPGQGLEWIGEINPTNGRTNYIEKFKSKATLTVDKSSSTAYMQLSSLTSEDSAVYYCARGTRAYHYWGQGTSVTVSS VL: DIQMTQSPASLSVSVGETVTITCRASDNLYSNLAWYQQKQGKSPQLLVYDATNLADGVPSRFSGSGSGTQYSLKINSLQSEDFGTYYCQHFWGTPLTFGAGTKLELK | – | – | – | – | no binding | –
